# Experimental data: patent US20190062438A1 (CSL, published 2019)
# Where a chain is given by its changes, count along the chain named.
# T1: human CD131 (human, UniProt P32927 17-897)
# T1 sequence: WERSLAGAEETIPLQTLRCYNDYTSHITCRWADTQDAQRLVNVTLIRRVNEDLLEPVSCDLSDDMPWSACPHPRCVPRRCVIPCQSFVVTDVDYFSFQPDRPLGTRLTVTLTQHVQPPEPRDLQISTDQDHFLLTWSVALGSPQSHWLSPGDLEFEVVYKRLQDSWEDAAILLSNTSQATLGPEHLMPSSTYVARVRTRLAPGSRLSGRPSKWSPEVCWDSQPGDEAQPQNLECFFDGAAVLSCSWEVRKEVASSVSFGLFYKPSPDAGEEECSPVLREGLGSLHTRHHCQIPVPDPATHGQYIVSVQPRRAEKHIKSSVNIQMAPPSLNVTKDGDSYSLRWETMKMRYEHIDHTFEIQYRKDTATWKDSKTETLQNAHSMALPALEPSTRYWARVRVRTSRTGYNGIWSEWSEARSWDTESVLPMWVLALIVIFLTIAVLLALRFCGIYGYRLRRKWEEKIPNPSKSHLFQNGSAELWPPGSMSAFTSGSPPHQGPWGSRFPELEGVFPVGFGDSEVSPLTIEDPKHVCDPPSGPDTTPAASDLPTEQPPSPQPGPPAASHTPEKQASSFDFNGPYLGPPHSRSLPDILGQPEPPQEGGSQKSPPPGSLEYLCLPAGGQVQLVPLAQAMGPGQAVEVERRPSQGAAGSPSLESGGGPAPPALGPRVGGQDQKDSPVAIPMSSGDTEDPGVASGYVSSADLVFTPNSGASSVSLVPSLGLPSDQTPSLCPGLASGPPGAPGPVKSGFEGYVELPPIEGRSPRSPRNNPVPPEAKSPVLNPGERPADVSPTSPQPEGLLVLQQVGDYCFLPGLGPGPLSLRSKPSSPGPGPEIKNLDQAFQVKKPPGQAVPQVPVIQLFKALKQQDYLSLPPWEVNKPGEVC
# B1: 9A2-VR5 (antibody, V domains shown)
# VH: EVQLLESGGGLVQPGGSLRLSCAASGFTFSHYHMLWVRQAPGKGLEWVSSIRSSGGFTYYADSVKGRFTISRDNSKNTLYLQMNSLRAEDTAVYYCARFYDSFFDIWGQGTMVTVSS
# VL: DIQMTQSPSSVSASVGDRVTITCRASQGIRPFVAWYQQKPGKAPKLLIYAASSLQSGVPSRFSGSGSGTDFTLTISSLQPEDFATYYCQQANSFPITFGQGTRLEIKR
# B2: 9A2-VR12 (antibody, V domains shown)
# VH: B1 VH
# VL: B1 VL with A34S
# B3: 9A2-VR19 (antibody, V domains shown)
# VH: B1 VH
# VL: B1 VL with R30S, P31S, F32W, V33L, Q89G, Q90I, A91P, N92I, S93L, F94G
# B4: 9A2-VR14 (antibody, V domains shown)
# VH: B1 VH
# VL: B1 VL with R30S, P31S, F32W, V33L, Q89G, Q90K, A91P, N92V, S93F, F94D
# B5: 9A2-VR8 (antibody, V domains shown)
# VH: B1 VH
# VL: B1 VL with I29V, V33I, A34S
# B6: 9A2-VR9 (antibody, V domains shown)
# VH: B1 VH
# VL: B1 VL with V33I, A34D
# B7: 9A2-VR11 (antibody, V domains shown)
# VH: B1 VH
# VL: B1 VL with I29V, A34S
# B8: 9A2-VR16 (antibody, V domains shown)
# VH: B1 VH
# VL: B1 VL with R30S, P31S, F32W, V33L, Q89G, Q90I, A91P, N92V, S93L, F94G
# B9: 9A2-VR13 (antibody, V domains shown)
# VH: B1 VH
# VL: B1 VL with R30S, P31S, F32W, V33L, Q89G, Q90K, A91P, N92V, S93L, F94D
# B10: 9A2-VR6 (antibody, V domains shown)
# VH: B1 VH
# VL: B1 VL with I29V, A34N
# B11: 9A2-VR39.21 (antibody, V domains shown)
# VH: B1 VH with S30Q, M34T, L35V, R52N, S53G, S54R, G56R, F57V
# VL: B1 VL with R30S, P31S, F32W, V33L
# B12: 9A2-VR39.06 (antibody, V domains shown)
# VH: B1 VH with S30Q, H31W, M34Y, L35I, R52N, S53G, S54R, G56R, F57V
# VL: B1 VL with R30S, P31S, F32W, V33L
# B13: 9A2-VR24.33 (antibody, V domains shown)
# VH: B1 VH with S30P, H31W, H33R, M34V, L35H, T58P, A61N, D62H, S63K
# VL: B1 VL with R30S, P31S, F32W, V33L
# B14: 9A2-VR24.27 (antibody, V domains shown)
# VH: B1 VH with S30P, H31W, H33R, M34V, L35H, T58P, A61H, D62Q, S63K
# VL: B1 VL with R30S, P31S, F32W, V33L
# B15: 9A2-VR39.17 (antibody, V domains shown)
# VH: B1 VH with S30P, H31F, M34K, L35V, R52N, S53G, S54R, G56R, F57V
# VL: B1 VL with R30S, P31S, F32W, V33L
# B16: 9A2-VR39.05 (antibody, V domains shown)
# VH: B1 VH with S30P, H31W, Y32F, M34T, L35V, R52N, S53G, S54R, G56R, F57V
# VL: B1 VL with R30S, P31S, F32W, V33L
# B17: 9A2-VR39.11 (antibody, V domains shown)
# VH: B1 VH with S30Q, H31E, Y32F, M34T, L35I, R52N, S53G, S54R, G56R, F57V
# VL: B1 VL with R30S, P31S, F32W, V33L
# B18: 9A2-VR24.122 (antibody, V domains shown)
# VH: B1 VH with S30P, H31W, H33R, M34V, L35H, A61N, D62S, S63E
# VL: B1 VL with R30S, P31S, F32W, V33L
# B19: 9A2-VR39.19 (antibody, V domains shown)
# VH: EVQLLESGGGLVQPGGSLRLSCAASGFTFQYFNVIWVRQAPGKGLEWVSSINGRGRVTYYADSVKGRFTISRDNSKNTLYLQMNSLRAEDTAVYYCARFYDSFFDIWGQGTMVTVSS
# VL: B1 VL with R30S, P31S, F32W, V33L
# B20: 9A2-VR39.02 (antibody, V domains shown)
# VH: B19 VH with Q30Y, Y31W, F32Y, N33H, V34M
# VL: B1 VL with R30S, P31S, F32W, V33L
# B21: 9A2-VR24.55 (antibody, V domains shown)
# VH: B1 VH with S30P, H31W, H33R, M34V, L35H, A61N, D62P, G66N
# VL: B1 VL with R30S, P31S, F32W, V33L
# B22: 9A2-VR24.131 (antibody, V domains shown)
# VH: B1 VH with S30P, H31W, H33R, M34V, L35H, A61N, D62P, K65M
# VL: B1 VL with R30S, P31S, F32W, V33L
# B23: 9A2-VR24.97 (antibody, V domains shown)
# VH: B1 VH with S30P, H31W, H33R, M34V, L35H, T58P, A61S, D62L
# VL: B1 VL with R30S, P31S, F32W, V33L
# B24: 9A2-VR24.56 (antibody, V domains shown)
# VH: B1 VH with S30P, H31W, H33R, M34V, L35H, A61N, D62P, S63A, K65R
# VL: B1 VL with R30S, P31S, F32W, V33L
# B25: 9A2-VR24.102 (antibody, V domains shown)
# VH: B1 VH with S30P, H31W, H33R, M34V, L35H, T58P, Y59F, A61N, D62S
# VL: B1 VL with R30S, P31S, F32W, V33L
# B26: 9A2-VR24.44 (antibody, V domains shown)
# VH: B1 VH with S30P, H31W, H33R, M34V, L35H, T58P, A61H, D62P
# VL: B1 VL with R30S, P31S, F32W, V33L
# B27: 9A2-VR24.111 (antibody, V domains shown)
# VH: B1 VH with S30P, H31W, H33R, M34V, L35H, T58P, Y59M, A61N, D62P, S63H
# VL: B1 VL with R30S, P31S, F32W, V33L
# B28: 9A2-VR24.110 (antibody, V domains shown)
# VH: B1 VH with S30P, H31W, H33R, M34V, L35H, T58P, A61N, D62N, S63H
# VL: B1 VL with R30S, P31S, F32W, V33L
# B29: 9A2-VR39.16 (antibody, V domains shown)
# VH: B19 VH with Y31W, V34I, I35V
# VL: B1 VL with R30S, P31S, F32W, V33L
# B30: 9A2-VR24.98 (antibody, V domains shown)
# VH: B1 VH with S30P, H31W, H33R, M34V, L35H, T58P, Y59H, A61N, D62S, S63V
# VL: B1 VL with R30S, P31S, F32W, V33L
# B31: 9A2-VR39.01 (antibody, V domains shown)
# VH: B19 VH with Q30F, Y31W, N33H, V34H, I35V
# VL: B1 VL with R30S, P31S, F32W, V33L
# B32: 9A2-VR24.124 (antibody, V domains shown)
# VH: B1 VH with S30P, H31W, H33R, M34V, L35H, A61T, D62P, K65R
# VL: B1 VL with R30S, P31S, F32W, V33L
# B33: 9A2-VR24.57 (antibody, V domains shown)
# VH: B1 VH with S30P, H31W, H33R, M34V, L35H, A61N, D62P, S63K, G66H
# VL: B1 VL with R30S, P31S, F32W, V33L
# B34: 9A2-VR24.30 (antibody, V domains shown)
# VH: B1 VH with S30P, H31W, H33R, M34V, L35H, T58P, A61N, D62R, S63R
# VL: B1 VL with R30S, P31S, F32W, V33L
# B35: 9A2-VR24.107 (antibody, V domains shown)
# VH: B1 VH with S30P, H31W, H33R, M34V, L35H, T58P, A61N, D62P, S63F
# VL: B1 VL with R30S, P31S, F32W, V33L
# B36: 9A2-VR39.04 (antibody, V domains shown)
# VH: B19 VH with Q30N, Y31W, N33Q, V34H
# VL: B1 VL with R30S, P31S, F32W, V33L
# B37: 9A2-VR39.18 (antibody, V domains shown)
# VH: B19 VH with Q30P, Y31G, F32Y, N33V, V34W
# VL: B1 VL with R30S, P31S, F32W, V33L
# B38: 9A2-VR39.12 (antibody, V domains shown)
# VH: B19 VH with Q30F, Y31W, V34T, I35V
# VL: B1 VL with R30S, P31S, F32W, V33L
# Biological target: T1, human CD131
# Assay: cell-based or functional assay
row,"IC50 GM-CSF, TF-1 proliferation [nM]",Binder
1,87,B1
2,198,B2
3,> 1000,B3
4,> 1000,B4
5,57.7,B5
6,72.7,B6
7,353,B7
8,> 1000,B8
9,> 1000,B9
10,250,B10

# Biological target: T1, human CD131
# Assay: cell-based or functional assay
# Remark: another data set of the same source
row,"IC50 GM-CSF, TF-1 proliferation [nM]",Binder
1,0.96,B11
2,1.85,B12
3,0.34,B13
4,0.25,B14
5,0.67,B15
6,0.96,B16
7,18.6,B17
8,0.66,B18
9,7.26,B19
10,0.46,B20
11,0.6,B21
12,1.06,B22
13,0.16,B23
14,0.48,B24
15,0.32,B25
16,0.4,B26
17,0.42,B27
18,0.24,B28
19,6.07,B29
20,0.25,B30
21,0.51,B31
22,0.54,B32
23,0.33,B33
24,0.25,B34
25,0.3,B35
26,30.4,B36
27,> 1000,B37
28,25.1,B38
